The subject of series [1] is PEX19-deficient human fibroblasts (ΔPEX19 T). Nature of the series: Functional complementation of PEX19-deficient fibroblasts (peroxisomal protein import). It counts as cell-based. The settings on record: full-length PEX19 variants, 72 h after transfection; for cells showing restored peroxisomal protein transport (functional complementation): at least 100 cells in three independent transfections, series of Fig. 3c. The text has this: A bicistronic expression plasmid coding for eGFP-PTS1 and non-tagged PEX14 (pMF1220)[43] was kindly provided by Marc Fransen (Leuven, Belgium). pIRES2-HsPEX19-eGFP-PTS1 was constructed by replacing the open reading frame of PEX14 (BglII/SalI) with a DNA-cassette encoding the full-length open reading frame of human PEX19 as derived from BamHI/SalI digestion of pAH05 (ref. [44]). Single point mutations were introduced into the PEX19 sequence by Quickchange XL Site-directed Mutagenesis kit (Stratagene) using primer pairs (Supplementary Table 1). The bicistronic expression vectors coding for PEX19 variants and eGFP-PTS1 were transfected into the human cell-line ΔPEX19 T which was derived from PEX19-deficient Zellweger patient fibroblasts. ΔPEX19 T cells, characterized by a defect in peroxisome biogenesis were routinely authenticated by functional complementation assays as described below and checked for mycoplasma contamination using Venor GeM Advance Mycoplasm Detection Kit (Minerva Biolabs). The efficiency of transfection according to the Amaxa Cell Line Nucleofector Kit R protocol (Lonza Cologne AG) was always around 90%. After 72 h of transfection, cells were subjected to fluorescence and immunofluorescence microscopy using polyclonal antiserum against human PEX14 (ref. [45]) (1:400 diluted) or monoclonal antibodies against human PEX19 (BD Biosciences, MA5-17266 Thermo Scientific; 1:400 diluted). Statistical analysis was carried out from three independent transfections of each pIRES-PEX19-eGFP-PTS1 expression plasmid. Based on the appearance of eGFP-PTS1 fluorescence pattern, about 100 cells of each experiment were visually categorized into three classes, (i) full complementation of peroxisomal import as visualized by punctuate staining pattern, (ii) partial complementation as indicated by diffuse cytosolic staining with few dots, (iii) no complementation resulting in only cytosolic staining. All micrographs were recorded on a Zeiss Axioplan 2 microscope with a Zeiss Plan-Apochromat × 63/1.4 oil objective and an Axiocam MR digital camera, and were processed with AxioVision 4.6 software (Zeiss, Jena, Germany). The steady-state level of PEX19 expression was assessed by immunoblot analysis, using monoclonal mouse antibodies against HsPEX19 (BD Biosciences, MA5-17266; 1:1,000 diluted) (Supplementary Fig. 9).

The subject of series [2] is PEX19-deficient human fibroblasts. The series is described as follows: Immunoblot analysis of PEX19 variants in transfected fibroblasts. It counts as cell-based. The text has this: A bicistronic expression plasmid coding for eGFP-PTS1 and non-tagged PEX14 (pMF1220)[43] was kindly provided by Marc Fransen (Leuven, Belgium). pIRES2-HsPEX19-eGFP-PTS1 was constructed by replacing the open reading frame of PEX14 (BglII/SalI) with a DNA-cassette encoding the full-length open reading frame of human PEX19 as derived from BamHI/SalI digestion of pAH05 (ref. [44]). Single point mutations were introduced into the PEX19 sequence by Quickchange XL Site-directed Mutagenesis kit (Stratagene) using primer pairs (Supplementary Table 1). […] After 72 h of transfection, cells were subjected to fluorescence and immunofluorescence microscopy using polyclonal antiserum against human PEX14 (ref. [45]) (1:400 diluted) or monoclonal antibodies against human PEX19 (BD Biosciences, MA5-17266 Thermo Scientific; 1:400 diluted). […] Based on the appearance of eGFP-PTS1 fluorescence pattern, about 100 cells of each experiment were visually categorized into three classes, (i) full complementation of peroxisomal import as visualized by punctuate staining pattern, (ii) partial complementation as indicated by diffuse cytosolic staining with few dots, (iii) no complementation resulting in only cytosolic staining. […]

Series [3] in a line: Hydrophobic interaction chromatography. It counts as physicochemical. Here is the method:
Purified PEX19 CTD and variants were adjusted to a buffer containing 650 mM (NH4)2SO4 and 500 μg protein was subjected to equilibrated Butyl Sepharose FF column (20 mM potassium phosphate, pH 6.5, 50 mM NaCl and 650 mM (NH4)2SO4). After washing, bound protein was eluted with linear decreasing (NH4)2SO4 concentrations (650–0 mM (NH4)2SO4, 20 ml). Eluted proteins were detected using 280 nm absorption. The binding strength is indicated by the elution volume and correlates with protein hydrophobicity.

The nature of series [4]: Stability of purified protein in solution. The format is physicochemical.

“Also recorded” adds a separate entry of the source.

B1: PEX19 C296S: full-length PEX19 variant which lacks the farnesylation site (protein, UniProt P40855 1-299, looked up, variant C296S)
chain: MAAAEEGCSVGAEADRELEELLESALDDFDKAKPSPAPPSTTTAPDASGPQKRSPGDTAKDALFASQEKFFQELFDSELASQATAEFEKAMKELAEEEPHLVEQFQKLSEAAGRVGSDMTSQQEFTSCLKETLSGLAKNATDLQNSSMSEEELTKAMEGLGMDEGDGEGNILPIMQSIMQNLLSKDVLYPSLKEITEKYPEWLQSHRESLPPEQFEKYQEQHSVMCKICEQFEAETPTDSETTQKARFEMVLDLMQQLQDLGHPPKELAGEMPPGLNFDLDALNLSGPPGASGEQSLIM
modifications: full-length
B1: in series [1], the “functional complementation (in words)” value is listed as “cannot fully restore PEX19 function” and the “cells showing restored peroxisomal protein transport (functional complementation)” value is recorded as 46%. Besides, the “cells showing restored peroxisomal protein transport (functional complementation)” value in series [1] (listed as C296S) is 50%. Besides, the “expression and farnesylation in vivo” value in series [2] was “lacks the farnesylation site”.

B2: M255R: PEX19 CTD variant M255R (helix α4) (protein)
chain: GMDEGDGEGNILPIMQSIMQNLLSKDVLYPSLKEITEKYPEWLQSHRESLPPEQFEKYQEQHSVMCKICEQFEAETPTDSETTQKARFEMVLDLRQQLQDLGHPPKELAGEMPPGLNFDLDALNLSGPPGASGEQCLIM
modifications: left off: His6, end not stated, cleaved
Consider B2, for which the “functional complementation (in words)” value in series [1] is given as “not capable of rescuing the ΔPEX19 phenotype; also recorded: completely abolishes PEX19 function”. The “elution volume after start of the gradient” value in series [3] (Butyl Sepharose FF, linear decreasing (NH4)2SO4 650–0 mM, 20 ml, 20 mM potassium phosphate, pH 6.5, 50 mM NaCl, 280 nm, 500 μg protein) is 5.00 mL. The “hydrophobic interaction chromatography, effect on hydrophobicity (in words)” value in series [3] (farnesylated vs non-farnesylated, compared to wild type) is listed as “most pronounced effects”. Also, the “stability in solution after purification” value in series [4] is recorded as “not stable for long time in solution”.

For the origin of these results see PMC5353646, “Allosteric modulation of peroxisomal membrane protein recognition by farnesylation of the peroxisomal import receptor PEX19” (Nature Communications, 2017).
